The term Kd denotes the free concentration of one partner at which half of the binding sites on the other are occupied at equilibrium, for simple one-to-one binding. As a reminder, the koff is the rate constant with which the complex falls apart. Usually kon stands for the rate constant with which the complex forms.

From patent US20260193356A1 (BIOCYTOGEN PHARMACEUTICALS BEIJING, published 2026) come the findings set out here.

The target in assay [1] is human PDL1 on helper cells CHO-aAPC-hPDL1 (Promega, Cat #: J1081) (human, UniProt Q9NZQ7 19-290). Nature of the assay: cell-based or functional assay.
The target in assay [2] is T1, human PDL1 (hPDL1) expressed on CHO-S cells (CHO-S-hPDL1) (human, UniProt Q9NZQ7 19-290). Briefly: flow cytometry on CHO-S-hPDL1 cells; antibody 1 µg/mL. The procedure: (§1) Then, after one wash with PBS, the cells were incubated with the secondary antibody anti-hIgG-Fc-Alex Flour 647 (RL1-H) (Jackson ImmunoResearch Laboratories, Inc., 109-606-170) at 4° C. for 15 minutes before flow cytometry analysis.
A general note: A flow cytometer gives signals particle by particle.

The target in assay [3] is T2, mouse (Mus musculu) PDL1 (mPDL1) expressed on CHO-S cells (CHO-S-mPDL1) (mouse, UniProt Q9EP73 19-290). Nature of the assay: flow cytometry on CHO-S-mPDL1 cells; antibody 1 µg/mL. Here is the method:
as §1

Assay [4] addresses T3, monkey (Macaca fascicularis) PDL1 (fasPDL1) expressed on CHO-S cells (CHO-S-fasPDL1) (monkey (Macaca fascicularis), UniProt Q9NZQ7 19-290 (human entry)). Briefly: flow cytometry on CHO-S-fasPDL1 cells; antibody 1 µg/mL. Here is the method: as §1
Assay [5] deals with T1, human PDL1 (hPDL1) expressed on CHO-S …. Nature of the assay: flow cytometry on CHO-S-hPDL1 cells; antibody 0.1 µg/mL. The procedure:
as §1

Assay [6] deals with T2, mouse (Mus musculu) PDL1 (mPDL1) …. Briefly: flow cytometry on CHO-S-mPDL1 cells; antibody 0.1 µg/mL. The procedure: as §1
The target in assay [7] is T3, monkey (Macaca fascicularis) PDL1 …. Briefly: flow cytometry on CHO-S-fasPDL1 cells; antibody 0.1 µg/mL. The procedure: as §1
Assay [8] deals with T4, His-tagged human PDL2 protein (hPDL2-his, ACROBiosystems Inc., Cat #: PD2-H5220) (human, UniProt Q9BQ51 20-219).
T4 construct: Bought protein; not shown: His tag
T4 sequence (looked up): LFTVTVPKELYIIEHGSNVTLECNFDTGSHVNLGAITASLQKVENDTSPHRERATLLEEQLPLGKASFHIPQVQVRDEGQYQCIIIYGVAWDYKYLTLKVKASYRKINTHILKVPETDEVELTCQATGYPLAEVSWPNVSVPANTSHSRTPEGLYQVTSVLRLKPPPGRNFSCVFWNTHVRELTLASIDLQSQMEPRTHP
Briefly: SPR Biacore 8K, antibody captured on Protein A chip, His-tagged antigen as analyte. Here is the method: (§2) The His-tagged antigen protein at a concentration of 200 nM was then injected at 30 μL/min for 180 seconds. Dissociation was monitored for 400 seconds. The chip was regenerated after the last injection of each titration with Glycine (pH 2.0, 30 μL/min for 30 seconds).
For orientation: Surface plasmon resonance follows binding to a sensor surface in real time, without labels.

The target in assay [9] is T5, His-tagged human B7-H3 protein (hB7-H3-his, ACROBiosystems Inc., Cat #: B73-H52E2) (human, UniProt Q5ZPR3-2 29-245).
T5 construct: Bought protein; not shown: His tag
T5 sequence (looked up): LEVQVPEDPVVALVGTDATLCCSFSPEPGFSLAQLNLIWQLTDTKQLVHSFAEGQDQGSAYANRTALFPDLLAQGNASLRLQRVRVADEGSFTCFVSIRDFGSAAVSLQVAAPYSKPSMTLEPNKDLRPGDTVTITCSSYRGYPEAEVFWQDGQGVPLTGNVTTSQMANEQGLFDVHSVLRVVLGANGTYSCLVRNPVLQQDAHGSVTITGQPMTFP
Described as above. The procedure: as §2

The target in assay [10] is T6, His-tagged human B7-H2 protein (hB7-H2-his, ACROBiosystems Inc., Cat #: B72-H5221) (human, UniProt O75144 19-258).
T6 construct: Bought protein; not shown: His tag
T6 sequence (looked up): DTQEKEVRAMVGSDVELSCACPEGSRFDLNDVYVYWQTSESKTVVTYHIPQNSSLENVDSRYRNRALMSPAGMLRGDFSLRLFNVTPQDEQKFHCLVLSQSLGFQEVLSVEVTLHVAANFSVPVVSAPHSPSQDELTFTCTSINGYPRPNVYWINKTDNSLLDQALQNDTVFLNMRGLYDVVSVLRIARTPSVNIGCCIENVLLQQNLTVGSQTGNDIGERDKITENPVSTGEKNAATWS
The assay is described as above. Here is the method:
as §2

In assay [11] the target is T7, His-tagged human B7-1 protein (hB7-1-his, Kactus, Cat #: B71-HM480) (human, UniProt P33681 35-242).
T7 construct: Bought protein; not shown: His tag
T7 sequence (looked up): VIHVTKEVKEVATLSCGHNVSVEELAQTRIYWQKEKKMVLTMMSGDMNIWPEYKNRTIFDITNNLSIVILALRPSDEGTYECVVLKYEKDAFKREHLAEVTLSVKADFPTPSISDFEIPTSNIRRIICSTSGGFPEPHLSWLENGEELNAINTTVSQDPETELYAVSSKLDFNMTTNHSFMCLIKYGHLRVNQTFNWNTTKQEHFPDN
The description is as above. The procedure:
as §2

For assay [12], the target named is T8, His-tagged human PDL1 protein (hPDL1-his, ACROBiosystems Inc., Cat #: PD1-H5229) (human, UniProt Q9NZQ7 19-238).
T8 construct: Bought protein; not shown: His tag
Briefly: SPR Biacore 8K, antibody captured on Protein A chip, His-tagged antigen as analyte, 1:1 model. The procedure: (§3) Dissociation was monitored for 400 seconds. The chip was regenerated after the last injection of each titration with Glycine (pH 2.0, 30 μL/min for 30 seconds).

For assay [13], the target named is T9, His-tagged Macaca fascicularis PDL1 protein (fasPDL1-his, ACROBiosystems Inc., Cat #: PD1-C52H4) (Macaca fascicularis, UniProt Q9NZQ7 19-238 (human entry)).
T9 construct: Bought protein; also called monkey PDL1; not shown: His tag
The description is as above. Here is the method: as §3

In assay [14] the target is T10, His-tagged mouse PDL1 protein (mPDL1-his, ACROBiosystems Inc., Cat #: PD1-M5220) (mouse, UniProt Q9EP73 19-238).
T10 construct: Bought protein; not shown: His tag
The assay is described as above. Here is the method: as §3

T3 sequence (Q9NZQ7 other isoform, or with tags, fused parts or gaps limits assumed): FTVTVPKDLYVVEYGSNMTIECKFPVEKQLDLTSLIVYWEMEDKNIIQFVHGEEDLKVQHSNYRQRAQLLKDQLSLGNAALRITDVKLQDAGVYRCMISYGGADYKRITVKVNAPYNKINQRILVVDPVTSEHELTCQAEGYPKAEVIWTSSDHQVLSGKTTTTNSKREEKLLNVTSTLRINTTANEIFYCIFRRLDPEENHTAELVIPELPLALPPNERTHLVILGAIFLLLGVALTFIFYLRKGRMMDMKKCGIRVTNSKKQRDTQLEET
T8 sequence (Q9NZQ7 19-238 limits assumed): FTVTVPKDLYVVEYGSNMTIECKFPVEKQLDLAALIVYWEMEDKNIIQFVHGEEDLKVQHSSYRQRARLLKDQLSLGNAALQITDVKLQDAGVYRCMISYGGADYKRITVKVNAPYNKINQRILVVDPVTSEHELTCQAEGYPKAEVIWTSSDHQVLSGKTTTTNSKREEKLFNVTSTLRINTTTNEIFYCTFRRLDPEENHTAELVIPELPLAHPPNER
T10 sequence (Q9EP73 19-238 limits assumed): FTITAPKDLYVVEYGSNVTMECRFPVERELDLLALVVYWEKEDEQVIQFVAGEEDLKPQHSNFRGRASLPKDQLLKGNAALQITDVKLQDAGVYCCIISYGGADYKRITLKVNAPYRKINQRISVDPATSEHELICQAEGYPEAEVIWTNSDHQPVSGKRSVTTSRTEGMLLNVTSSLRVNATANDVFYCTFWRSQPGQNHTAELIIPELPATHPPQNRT
T9 sequence (Q9NZQ7 other isoform, or with tags, fused parts or gaps limits assumed): as the sequence (Q9NZQ7 19-238 limits assumed) above, with A33T, A34S, S62N, R68Q, Q82R, F173L, T185A, T192I, H215L counted along it
T1 sequence (Q9NZQ7 19-290 limits assumed): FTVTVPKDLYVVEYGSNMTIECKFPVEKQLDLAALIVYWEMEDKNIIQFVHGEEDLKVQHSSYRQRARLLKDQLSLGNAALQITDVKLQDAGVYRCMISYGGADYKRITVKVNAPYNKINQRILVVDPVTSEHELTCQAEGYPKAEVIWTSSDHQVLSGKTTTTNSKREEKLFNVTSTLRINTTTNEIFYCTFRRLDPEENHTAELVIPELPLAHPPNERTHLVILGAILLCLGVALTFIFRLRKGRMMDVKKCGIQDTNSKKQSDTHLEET
human PDL1 on helper cells CHO-aAPC-hPDL1 (Promega, Cat #: J1081), sequence (Q9NZQ7 19-290 limits assumed): as above
T2 sequence (Q9EP73 19-290 limits assumed): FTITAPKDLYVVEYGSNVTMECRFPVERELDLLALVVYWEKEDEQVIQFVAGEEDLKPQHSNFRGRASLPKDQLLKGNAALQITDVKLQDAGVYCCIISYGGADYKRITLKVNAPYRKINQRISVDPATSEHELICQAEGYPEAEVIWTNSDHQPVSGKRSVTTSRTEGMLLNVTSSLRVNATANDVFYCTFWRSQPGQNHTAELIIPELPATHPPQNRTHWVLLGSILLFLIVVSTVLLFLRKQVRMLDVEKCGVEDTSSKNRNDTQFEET

B1: B22E02-N297A (antibody, human IgG1, V domains shown)
VH: QVQLVQSGGGLVQPGRSLRLSCRASGFTFDGYSMNWVRQAPGKGLEWVGFIRSKGYGGTSESAASVKGRFTISRDDSKSIAYLQMNSLKTEDTAVYYCTRTRNWNDEGYFDYWGLGTLVTVSS
VL: DIQMTQSPSSLSASVGDRVTITCQASQDINKYLNWYQQKPGKAPKLLIYDASNSETGVPSRFSGSGSGTDFTFTISSLQPEDISTYYCQQYDILPITFGQGTRLEIK
notes: Human IgG1 with N297A (EU numbering) in the Fc
Turning to B1, the “IC50 (µg/mL), Blockade of the binding of PDL1 and PD-1 (luciferase, CHO-aAPC-hPDL1 + Jurkat-Luc-hPD1 cells)” value (shortened to “IC50 (µg/mL), Blockade”) in assay [1] amounted to 0.745 µg/mL. The “Percentage of Positive Cells (%)” value was found to be 87.1% in [2]; 77.1% in assay [3]; 74.4% in [4]; 72.2% in assay [5]; 66.1% in assay [6]; 66.9% in assay [7]. Further, the binding result in assay [8], in assay [9], in [10] and in assay [11] was “no binding (tested: 200 nM)” in each case. The results for the Kd in [12], in [13] and in [14] were 1.29 nM, 0.765 nM and 17.6 nM, respectively. Moreover, the koff in assay [12] came out at 0.000411 s⁻¹; in assay [13], 0.000331 s⁻¹; in assay [14] it was 0.00152 s⁻¹. The kon in [12] was 318000 M⁻¹ s⁻¹; in assay [13] it was 432000 M⁻¹ s⁻¹; in assay [14], 86200 M⁻¹ s⁻¹.

B2: B20A09-N297A (antibody, V domains shown)
VH: QVQLQQSGPGLVKPSQTLSLTCAISRDGVSNISGAWNWIRQSPSRGLEWLGRTYYRAMWYKDYALSVKSRITINPDTSKNQFSLQLNSVTPEDTAVYYCAREEYSRGWGAFDIWGQGTMVTVSS
VL: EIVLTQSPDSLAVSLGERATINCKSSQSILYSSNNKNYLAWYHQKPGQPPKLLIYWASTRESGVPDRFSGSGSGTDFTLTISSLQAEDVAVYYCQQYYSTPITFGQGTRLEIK
Regarding B2, the “IC50 (µg/mL), Blockade” value in assay [1] was 0.789 µg/mL. The “Percentage of Positive Cells (%)” value worked out at 83.1% in assay [2]; 79% in [3]; 72% in assay [4]; 69.9% in assay [5]; 67.8% in assay [6]; 64.2% in [7]. Also, the binding result in [8], in [9], in assay [10] and in [11] was “no binding (tested: 200 nM)” each time. Besides, the Kd in assay [12] is 4.6 nM; in assay [13], 2.95 nM; in assay [14] it was 41.5 nM. Further, the koff in [12] was found to be 0.000721 s⁻¹; in assay [13], 0.000612 s⁻¹; in assay [14] it was 0.00955 s⁻¹. The figures for the kon in assay [12], in assay [13] and in assay [14] were 157000 M⁻¹ s⁻¹, 207000 M⁻¹ s⁻¹ and 230000 M⁻¹ s⁻¹, respectively.

B3: B20B02-N297A (antibody, human IgG1, V domains shown)
VH: QVQLQQSGGGVVQPGRSLRLSCAASGFTFSTYGMHWVRQAPGKGLEWVAALSFDGGNIYYGDSVKGRFTISRDNSKNTLYLQMNSLRAEDTALYYCAKARLPYSYDAVDYWGQGTLVTVSS
VL: EIVMTQSPATLSVSPGERATLSCRASQSVSSNLAWYQQKPGQAPRLLIYDTSTRAIGIPARFSGSGSGTEFTLTISSLQSEDFAIYYCHQYNFWPPITLGQGTRLEIK
As to B3, the “IC50 (µg/mL), Blockade” value in assay [1] came to 1.13 µg/mL. For the same molecule, the “Percentage of Positive Cells (%)” value in assay [2] worked out at 89.3%; in assay [3] it was 87.3%; in assay [4] it was 79.8%; in assay [5], 69%; in assay [6], 70.6%; in assay [7], 65.9%. Also, the binding result in assay [8], in assay [9], in [10] and in assay [11] was “no binding (tested: 200 nM)” each time. The Kd in assay [12] is 1.16 nM; in assay [13], 0.672 nM; in assay [14], 1.28 nM. Also, the koff in assay [12] came out at 0.000184 s⁻¹; in assay [13], 0.000146 s⁻¹; in [14], 0.000168 s⁻¹. Besides, the figures for the kon in assay [12], in assay [13] and in [14] were 159000 M⁻¹ s⁻¹, 217000 M⁻¹ s⁻¹ and 131000 M⁻¹ s⁻¹, respectively.

B4: B21A06-N297A (antibody, human IgG1, V domains shown)
VH: QVQLQESGGDVVQPGRSLRLSCAASGFTFNNYGMHWVRQAPSKGLEWVAFIWYDGSNKYYGDSVKGRFTISRDNSKNTLYLQMNSLRAEDTALYYCARGDNWNSDAFDIWGPGTMVTVSS
VL: EIVMTQSPLSLPVTLGQPASISCRSSQSLVYTNGNTYLNWFQQRPGQSPRRLIYKVSSRDSGVPDRFSGSGSGTDFTLKISRVAAEDVGLYYCMQGTHWPLTFGGGTKVEIK
Consider B4, for which the “IC50 (µg/mL), Blockade” value in assay [1] turned out to be 1.14 µg/mL. The “Percentage of Positive Cells (%)” value in assay [2] is 83.2%; in assay [3] it was 75.2%; in assay [4] it was 70.2%; in [5], 65.8%; in assay [6], 65.2%; in assay [7], 65%. The binding result in [8], in assay [9], in assay [10] and in assay [11] was “no binding (tested: 200 nM)” throughout. For the same molecule, the results for the Kd in assay [12], in assay [13] and in assay [14] were 8.65 nM, 5.77 nM and 8.04 nM, respectively. Besides, the koff in assay [12] is 0.00167 s⁻¹; in [13] it was 0.00156 s⁻¹; in assay [14], 0.00187 s⁻¹. Further, the kon in assay [12] stood at 193000 M⁻¹ s⁻¹; in assay [13], 271000 M⁻¹ s⁻¹; in [14] it was 232000 M⁻¹ s⁻¹.
